Test results: patent publication US11071755 (CRISPR THERAPEUTICS, dated 2021)

T1: recombinant biotinylated human BCMA (human, UniProt Q02223 1-54, biotinylated)
T1 construct: Soluble labelled reagent, detected with streptavidin-APC; also called recombinant BCMA; biotinylated BCMA
T1 sequence (looked up): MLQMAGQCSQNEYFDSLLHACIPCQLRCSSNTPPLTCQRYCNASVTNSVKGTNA


molecular target: T1, recombinant biotinylated human BCMA; experiment: flow cytometry, biotinylated BCMA on CAR-T cells detected with streptavidin-APC
Procedure: Allogeneic TRAC−/B2M−/anti-BCMA CAR T+ cells were generated, as described above, having either a CD28 co-stimulatory domain (encoded by CTX-160 or CTX-166) or a 4-1BB co-stimulatory domain (encoded by CTX160b or CTX166b). Anti-BCMA CAR expression was measured by determining the percent of cells that bound biotinylated BCMA subsequently detected by FACS using streptavidin-APC (FIG. 67). Greater than 60% of the cells expressed the CAR at the cell surface.

Row | percent of cells that bound biotinylated BCMA [%] | Binder
1 | > 60 | anti-BCMA CAR of CTX-166 (CD28 co-stimulatory domain) (other, CAR on edited primary human T cells; also called anti-BCMA (CD28) CAR) QVQLVQSGAELKKPGASVKVSCKASGNTLTNYVIHWVRQAPGQRLEWMGYILPYNDLTKYSQKFQGRVTITRDKSASTAYMELSSLRSEDTAVYYCTRWDWDGFFDPWGQGTTVTVSSGGGGSGGGGSGGGGSEIVMTQSPATLSVSPGERASISCRASQSLVHSNGNTHLHWYQQRPGQAPRLLIYSVSNRFSEVPARFSGSGSGTDFTLTISSVESEDFAVYYCSQTSHIPYTFGGGTKLEIKSAAAFVPVFLPAKPTTTPAPRPPTPAPTIASQPLSLRPEACRPAAGGAVHTRGLDFACDIYIWAPLAGTCGVLLLSLVITLYCNHRNRSKRSRLLHSDYMNMTPRRPGPTRKHYQPYAPPRDFAAYRSRVKFSRSADAPAYQQGQNQLYNELNLGRREEYDVLDKRRGRDPEMGGKPRRKNPQEGLYNELQKDKMAEAYSEIGMKGERRRGKGHDGLYQGLSTATKDTYDALHMQALPPR
2 | > 60 | anti-BCMA CAR of CTX-160b (4-1BB co-stimulatory domain) (other, CAR on edited primary human T cells; also called anti-BCMA (4-1BB) CAR) EVQLVESGGGLVQPGGSLKLSCAASGIDFSRYWMSWVRQAPGKGLEWIGEINPDSSTINYADSVKGRFTISRDNAKNTLYLQMNLSRAEDTALYYCASLYYDYGDAMDYWGQGTLVTVSSGGGGSGGGGSGGGGSDIQMTQSPSSLSASVGDRVTITCRASQSVDSNVAWYQQKPEKAPKSLIFSASLRFSGVPSRFSGSGSGTDFTLTISSLQPEDFATYYCQQYNSYPLTFGAGTKLEIKSAAAFVPVFLPAKPTTTPAPRPPTPAPTIASQPLSLRPEACRPAAGGAVHTRGLDFACDIYIWAPLAGTCGVLLLSLVITLYCNHRNRKRGRKKLLYIFKQPFMRPVQTTQEEDGCSCRFPEEEEGGCELRVKFSRSADAPAYQQGQNQLYNELNLGRREEYDVLDKRRGRDPEMGGKPRRKNPQEGLYNELQKDKMAEAYSEIGMKGERRRGKGHDGLYQGLSTATKDTYDALHMQALPPR
3 | > 60 | anti-BCMA CAR of CTX-166b (4-1BB co-stimulatory domain) (other, CAR on edited primary human T cells; also called anti-BCMA (4-1BB) CAR) QVQLVQSGAELKKPGASVKVSCKASGNTLTNYVIHWVRQAPGQRLEWMGYILPYNDLTKYSQKFQGRVTITRDKSASTAYMELSSLRSEDTAVYYCTRWDWDGFFDPWGQGTTVTVSSGGGGSGGGGSGGGGSEIVMTQSPATLSVSPGERASISCRASQSLVHSNGNTHLHWYQQRPGQAPRLLIYSVSNRFSEVPARFSGSGSGTDFTLTISSVESEDFAVYYCSQTSHIPYTFGGGTKLEIKSAAAFVPVFLPAKPTTTPAPRPPTPAPTIASQPLSLRPEACRPAAGGAVHTRGLDFACDIYIWAPLAGTCGVLLLSLVITLYCNHRNRKRGRKKLLYIFKQPFMRPVQTTQEEDGCSCRFPEEEEGGCELRVKFSRSADAPAYQQGQNQLYNELNLGRREEYDVLDKRRGRDPEMGGKPRRKNPQEGLYNELQKDKMAEAYSEIGMKGERRRGKGHDGLYQGLSTATKDTYDALHMQALPPR
4 | > 60 | anti-BCMA CAR of CTX-160 (CD28 co-stimulatory domain) (other, CAR on edited primary human T cells; also called anti-BCMA (CD28) CAR) EVQLVESGGGLVQPGGSLKLSCAASGIDFSRYWMSWVRQAPGKGLEWIGEINPDSSTINYADSVKGRFTISRDNAKNTLYLQMNLSRAEDTALYYCASLYYDYGDAMDYWGQGTLVTVSSGGGGSGGGGSGGGGSDIQMTQSPSSLSASVGDRVTITCRASQSVDSNVAWYQQKPEKAPKSLIFSASLRFSGVPSRFSGSGSGTDFTLTISSLQPEDFATYYCQQYNSYPLTFGAGTKLEIKSAAAFVPVFLPAKPTTTPAPRPPTPAPTIASQPLSLRPEACRPAAGGAVHTRGLDFACDIYIWAPLAGTCGVLLLSLVITLYCNHRNRSKRSRLLHSDYMNMTPRRPGPTRKHYQPYAPPRDFAAYRSRVKFSRSADAPAYQQGQNQLYNELNLGRREEYDVLDKRRGRDPEMGGKPRRKNPQEGLYNELQKDKMAEAYSEIGMKGERRRGKGHDGLYQGLSTATKDTYDALHMQALPPR

molecular target: T1, recombinant biotinylated human BCMA; experiment: flow cytometry, recombinant BCMA on CAR-T cells
Procedure: Allogeneic anti-BCMA CAR T cells were generated as described above. Anti-BCMA CAR expression was measured by determining the percent of cells that bound biotinylated BCMA subsequently detected by FACS using streptavidin-APC (FIG. 47).
Figure 48: FIG. 48 is a graph showing anti-BCMA CAR expression. Allogeneic CAR T cells were generated as previously described. Anti-BCMA CAR expression was measured by determining the percent of cells that bound biotinylated recombinant human BCMA subsequently detected by FACS using streptavidin-APC. […] CAR constructs were evaluated for their ability to kill RPMI-8226 cells. […] Following enrichment/purification, greater than 99.5% of the gene edited cells are TCR negative.

Row | binding result | Binder
5 | binds | anti-BCMA CAR of CTX-154 (BCMA-2: CD8[signal peptide]-VL-linker-VH-CD8[tm]-CD28[co-stimulatory domain]-CD3z) (other, CAR on edited primary human T cells, co-expressed with GFP from a bicistronic 2A mRNA; also called BCMA-2 CAR) DIVMTQSQRFMTTSVGDRVSVTCKASQSVDSNVAWYQQKPRQSPKALIFSASLRFSGVPARFTGSGSGTDFTLTISNLQSEDLAEYFCQQYNNYPLTFGAGTKLELKGGGGSGGGGSGGGGSGQVQLQQSGGGLVQPGGSLKLSCAASGIDFSRYWMSWVRRAPGKGLEWIGEINPDSSTINYAPSLKDKFIISRDNAKNTLYLQMSKVRSEDTALYYCASLYYDYGDAMDYWGQGTSVTVSSSAAAFVPVFLPAKPTTTPAPRPPTPAPTIASQPLSLRPEACRPAAGGAVHTRGLDFACDIYIWAPLAGTCGVLLLSLVITLYCNHRNRSKRSRLLHSDYMNMTPRRPGPTRKHYQPYAPPRDFAAYRSRVKFSRSADAPAYQQGQNQLYNELNLGRREEYDVLDKRRGRDPEMGGKPRRKNPQEGLYNELQKDKMAEAYSEIGMKGERRRGKGHDGLYQGLSTATKDTYDALHMQALPPR
6 | binds | anti-BCMA CAR of CTX-152 (BCMA-1: CD8[signal peptide]-VH-linker-VL-CD8[tm]-CD28[co-stimulatory domain]-CD3z) (other, CAR on edited primary human T cells, co-expressed with GFP from a bicistronic 2A mRNA; also called BCMA-1 CAR) QVQLQQSGGGLVQPGGSLKLSCAASGIDFSRYWMSWVRRAPGKGLEWIGEINPDSSTINYAPSLKDKFIISRDNAKNTLYLQMSKVRSEDTALYYCASLYYDYGDAMDYWGQGTSVTVSSGGGGSGGGGSGGGGSGDIVMTQSQRFMTTSVGDRVSVTCKASQSVDSNVAWYQQKPRQSPKALIFSASLRFSGVPARFTGSGSGTDFTLTISNLQSEDLAEYFCQQYNNYPLTFGAGTKLELKSAAAFVPVFLPAKPTTTPAPRPPTPAPTIASQPLSLRPEACRPAAGGAVHTRGLDFACDIYIWAPLAGTCGVLLLSLVITLYCNHRNRSKRSRLLHSDYMNMTPRRPGPTRKHYQPYAPPRDFAAYRSRVKFSRSADAPAYQQGQNQLYNELNLGRREEYDVLDKRRGRDPEMGGKPRRKNPQEGLYNELQKDKMAEAYSEIGMKGERRRGKGHDGLYQGLSTATKDTYDALHMQALPPR
